Laboratory results as given in the nanobody polyreactivity screen of Harvey et al. (2022).

Assay: yeast display, Sf9 membrane polyspecificity reagent, FACS + sequencing; frameworks hold sequencing errors
Procedure, shortened: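 Synthetic nanobody libraries on Saccharomyces cerevisiae BJ5465 were galactose-induced for 36–48 hours, stained 1 hour at 4 °C with 10% biotinylated, detergent-solubilized Sf9 membrane reagent and enriched on streptavidin microbeads. FACS then separated cells into low and high (top ~1%) gates by anti-HA (expression) and streptavidin (reagent binding) fluorescence. Genes were colony-PCR amplified, MiSeq 2 × 250 sequenced and CDR-length filtered. A clone's polyreactivity label is that of its gate of origin.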
In the case of “QVQRVESGGGLVQAGRSLRLSCAASGRTFTVYAMGWYRQAPGKERELVAGIRRGDSTYYADSVKGRFTISRDNAKHTVYLQMNSLKPEDTAVYYCNARTSGSSYYYWGQGTQVTVCS”, the “polyreactivity (PSR sort gate)” value is reported as “high polyreactivity”. With “QVQLVESGGGLVHAGGSHRLSCAASGSIFDVNAMGWYRPPRGKERELFAAITGTGGSTYYADSVKGRFTISRDNAKNSVYLQMYSLKPDDTSVYDCATVTGVRKYGYWGQGTQVTVSS” the “polyreactivity (PSR sort gate)” value was “high polyreactivity”. In the case of “QVQLVESGGGLVQAGGSLRLICAASGNIFAVYAMGWYRQAPGKERELVAAITTGTNTYADSVKGRFTISRDNAKNNVYLQMNSLKPEDTAVYFCAARYYRPLDYWGQGTQVTVSS”, the “polyreactivity (PSR sort gate)” value is reported as “low polyreactivity”. For “QVHLVESGGGLVQAGGSLRLSCAASGSTFAIYAMVWYRQAPGKERELVAAIRQRAGSTYYADSVKGRFTISRDNAKNTVYLQMNSLKPEDTAVHYCATATRPISRGYWGQGTQVTVSS”, the “polyreactivity (PSR sort gate)” value was “low polyreactivity”. For “QVQLVESGGGLVQAGGSLRLSCAASGRIFGRYAMGWYRPAPGKERELVAAITYRTGRTYYADSVKGRFTISRDNAKNTVYLQMNSLKPEDTAVYYCDAESTSDPIDFEYWGQGTQVTVSS”, the “polyreactivity (PSR sort gate)” value was “low polyreactivity”. For “QVQLVESGGGLVQAGGSLRLSCAASGRIFTAYAMGWYRQAPGKERELVARISKRGGSTYYADSVKGRFTISRDNAKNTVYLQMNSLKPEDTAVYYCAKSSWTFGAYNYWGQGTQVTVSS”, the “polyreactivity (PSR sort gate)” value was “high polyreactivity”. For “QVQLVESGGGLVQAGGSLRLSCAASGSTFPGYAMGRYRPAPGKERELVAAISASGGSTYYADSVKGRFTISRDYAKNTVYLQMNSLTPEDTAVYYCAKVLSRGASAHVYWGQGTQVTVSS”, the “polyreactivity (PSR sort gate)” value was “low polyreactivity”. In the case of “QVQLVESGAGLVHAGGSLRLSCAASGSTFSPYAMGWYRQAPGKESELVAAITSSGGSTYYADSVKGRFTISRDNAKNTVYLQMISLKPEDTALYYCAAVGYYTSTYDLYDYYYWGQGTHVTVSS”, the “polyreactivity (PSR sort gate)” value is reported as “low polyreactivity”. With “QVQLVESGGGLVQAGGSLRLSCAASGGTFPYYAMGWYRQAPGKERELVADISGTDGSTYYADSVKGRFTISRDNAKNTVYLQMNSLKPEDTAVYYCNAEPHWWYWDYDYWGQGTQVTVSS” the “polyreactivity (PSR sort gate)” value was “high polyreactivity”. With “QVQLVESGGGLVQAGGSLRLSSAASGSTFRYYTMGWYRPAPGKERELVADITIGGSTYYADSVKGRFTISRDNAKNTVYLQMNSLKPEDSAVYYCAARSTGGRIFATGVAYDYWGQGTQVTVSS” the “polyreactivity (PSR sort gate)” value was “low polyreactivity”. In the case of “QVQLVESGGGLVQAGGSLRLSSAASGRIFSRNTMGCYRQAPGKERELVAAIRYSGGRTYYADSVKGRFTISRDNAKNTVYLQMNCLKQEDTAVYYCAARWYGQGVSYRMDYWGQGTQVTVSS”, the “polyreactivity (PSR sort gate)” value is reported as “high polyreactivity”. In the case of “QVQLVESGGGLVQAGGSLRLSCASSGRIFDGYAMVWYRQAPGKERELVATISSGGSTYYADSVKGRFTISRDNAKNTVYLQMNSLKPEDTAVYYCAADSWVQFDYWGQGTQVTVSS”, the “polyreactivity (PSR sort gate)” value is reported as “low polyreactivity”. For “QVQLVESGGGLVQAGGSLRLSCAASGRTFRYYAMGWYRQAPGKEREFVAAITKRGGSTYYADSVKGRFTISRDNAKNTVYLQMNSLKAEDTAVYYCAADTSTWAHTRGYDYWGQGTQVTVSS”, the “polyreactivity (PSR sort gate)” value was “high polyreactivity”. In the case of “QVHLVESGGGLVQAGGSLRLSCAASGFTFIDYAMGWYRQAPGTERELVAAITTGTITYYADSVQGRFTISRDNAKNTVYLQMNSLKPEDTAVYYCAPTYSRRGGYRMEYWGQGTQVTVSS”, the “polyreactivity (PSR sort gate)” value is reported as “low polyreactivity”. For “QVQLVESGGGLVQAGGRLRLSCAASGRIFAEYAMGWYRQAPGKVRELVAAISRRGGRPYYADSVKGRFTISRDNAKKPVYLQMNSLTPDDTAVYYCAADHGDPGGYDYWGQGTQVTVSS”, the “polyreactivity (PSR sort gate)” value was “high polyreactivity”. In the case of “QVQLVESGGGLVQAGGSLRLSCAASGITFSGYDMGWYRQAPGKERELVADITISTGSTYYADSVKGRFTISRDNANNTVYLQMNSLKPEDTAVYYCAADWQQDRTVVLPSWGHAYDSWGQGTQVTVSS”, the “polyreactivity (PSR sort gate)” value is reported as “low polyreactivity”. With “QVQLVESGGGLVQAGGSLRLSCAASGLIFGEYDMGWYRQAPGKERELVAAISDRGTSTYYADSVKGRFTISRDNAKNTVYLQMNSLKPEDTAVYYCATDRNYYYSWEYDYWGQGTQVTVSS” the “polyreactivity (PSR sort gate)” value was “low polyreactivity”. For “QVQLVESGGGLVQAGGSLRLSCAASGRIFSFSAMGWYRQAPGKERELVAAISYSGGRTYYADSGKGRFTISRDNAKNTVYLQMNSLKPDDTAVYDCNAGRVLRLAYNYWGQGTQVTVSS”, the “polyreactivity (PSR sort gate)” value was “low polyreactivity”. For “QVQLVESGGGLVQAGGSLRLSCAASGSTFGANAMGWYRQAPGKERELVAAITRGVRTHYADSVKGRFTISRDNAKNTVYLQMNSLKPEDTAVYYCNARSYPRWLRYDYWGQGTQVTVSS”, the “polyreactivity (PSR sort gate)” value was “low polyreactivity”. With “QVQLVESGGGLVHAGGSLRLSCSATRSIFLGNAMGWYRQAPGKERELVAAISRSGGSTYYADSVKGRFTISRDNAKNTVYLQMNSLKPEDTAVYYCAAVVSSRVKQFEYWGQGNQVTVSS” the “polyreactivity (PSR sort gate)” value was “high polyreactivity”. In the case of “QVQHVESGGGLVQAGGSLRLSCAASGRTFAHYAMGWYRQAPGKERELVAAISWGGTRTYYADSVKGRFTISRDNAKNTVYLQMNSLKPEDTAVYYCAADYGYQDDYWGQGTQVTVSS”, the “polyreactivity (PSR sort gate)” value is reported as “low polyreactivity”. In the case of “QVQLVESGGGLVQAGGSLRLSCAASGSTFYIYAMGWYRQAPGKEREMVARISGSGGSTYYADSVKGRFTISRDNAKNTVYLQMNSLKPEDTAVYYCAADDIYKYYQYYAVPYYRYDYWGQGTQVTVSS”, the “polyreactivity (PSR sort gate)” value is reported as “low polyreactivity”. With “QVQLVESGGGLVQAGGSLRISCAASGRIFIYNAMGWYRQAPGKERELVAAINRSGVSTHYADSVKGRFTISRDNAKNTVYLQMNSLIPEDTAVYYCARTVYGARSYDYWGQGTQVTVSS” the “polyreactivity (PSR sort gate)” value was “low polyreactivity”. For “QVQLVESGGGLVQAGGSLRLSCAASGFIFNYYAMGWYRQAPGKEREFVAAITWRGGSTNYADSVKGRFTISRDNAKNTVYLQMNSLKPEDTAVYYCAAYSVWGGSYLALDYWGQGTQVTVSS”, the “polyreactivity (PSR sort gate)” value was “low polyreactivity”. With “QVQLVESGGGLVQAGGSLRLSCAASGSIFDYNAMGWYRQAPGKERELVAAISGSGVRTYYADSVKGRFTISRDNAKNTVYLQMNSLKPEDTAVYYCAAAVGRPRREYDYWGQGTQVTVSS” the “polyreactivity (PSR sort gate)” value was “high polyreactivity”. For “QVQLVESGGGLVQAGGSLRLSCAASGSIFVVNARGWYRQAPGKERELVAAITKNGGRTYYADSVKGRFTISRDNAKNTVYLQMNSLKPEDTAVYYCNTVKGHGGYYGYDYWGQGTQVSVSS”, the “polyreactivity (PSR sort gate)” value was “high polyreactivity”. With “QVQLVESGGGLVQAGGSLRLSCAASGRIFVHYVMGWYRQAPGKERELVAAISRSGGRTYYADSVKGRFTISRDNAKNTVYLQMNSLKAEDTAVYYCATDASTYKYDYWGQGSQVTVSS” the “polyreactivity (PSR sort gate)” value was “high polyreactivity”. For “QVQLVESGGGLVQAGGSLRLSCTASGITSGSYAMGWYRQEPGKESELVAAISNSGSTYYADSVKGRFTISRDNAKNTVYLQMNSLKPEDTEVYYCAAVTVGGHRSHRSGRSDYWGQGTQVTVSS”, the “polyreactivity (PSR sort gate)” value was “low polyreactivity”. In the case of “QVQLVESGGGLVQAGGSLRLSCAASGSIFVYNAMGWYRQAPGKEREFVAGITFIGGSTYYADSVKGRFTISRDNAKNTVYLKMNSLKPEDTAVYYCNADVAPGIFYGYDSWGQGSQVTVSS”, the “polyreactivity (PSR sort gate)” value is reported as “low polyreactivity”. With “QVQLVESGGGLVQAGGSLRLSCAASGSILSWYAMGWYRQAPGKERELVAAITGAGSTNYADSVKGRFTISRDNAKNTVYLQMNSLKPEDTAVYYCAADGSPWSWYSDGYWGQGTQVTVSS” the “polyreactivity (PSR sort gate)” value was “low polyreactivity”. For “QVQLVESGGGLVQAGGSLRLSCAASGRIFSVNGMGWYRQAPGKERELVAAITYNGGRTYYADSVKGRITISRDNAKNTVYLQMNSLKPEDTAVYYCAVESVRHPLDWYYYWGQGTQVTVSS”, the “polyreactivity (PSR sort gate)” value was “low polyreactivity”. In the case of “QVQLVESGGGLVQAGGSLRLSCAASGSTFDGNAMGWYRPAPGKVRELVAAITRAGRTSYADSVKGRFTISRDNAKNTVYLQMNSLKPEDTAVYYCAKGGYDYWGQGTQVTVSS”, the “polyreactivity (PSR sort gate)” value is reported as “low polyreactivity”. In the case of “QVQLVESGGGLVQAVGSLRLSCAASGLIFDANAMGWYRQAPGKERELVAAISNGDSTYYADSVKGRLTISRDNAKNTVYLQMNSLKPEDTAVYYCNARIIYRKWLFRSGTFNYWGQGTQVTVSS”, the “polyreactivity (PSR sort gate)” value is reported as “low polyreactivity”. For “QVQLVESGGGLVQAGVSLRLSCDASGSIFDPYAMGWFRQAPGKEMELVAAITASGSSTYYADSVKGRFTISRDNAKNTVYLQMNSLKPEDTAVYYCAADRANWEYLLSWLGYDYWGQGTQVTVSS”, the “polyreactivity (PSR sort gate)” value was “low polyreactivity”. With “QVQLVESGGGLVQAGGSLRLSCAASGRILYYYAMGWYRQAPGKERELVAAITWGGGSTYYADSVKGRFTISRDNAKKSVYLQMNSLTPEETAVYYCNRTFRSRLPTSRGYEYWGQGTQVTVSS” the “polyreactivity (PSR sort gate)” value was “low polyreactivity”. For “QVQLVESGGGLVQAGGSLRLSCSASGFTLGFNAMGCYRQAPGKEREFVASITYRGGSTYYADSVKGRFTISRDNAKNTVYLQMNSLKPEDTAVYYCAARHRSSYSLYWGQGTQVTVSS”, the “polyreactivity (PSR sort gate)” value was “high polyreactivity”. In the case of “QVQLVESGGGLVQAGGSLRLSCAASGFIFGYNDMGWSRQAPGKERELVAAINSGGSTYYADSVKGRFTISRDNAKNTVYLQMNSLKPDDTAVYYCAADYGYFEFDYWGQGTQVTVSS”, the “polyreactivity (PSR sort gate)” value is reported as “low polyreactivity”. In the case of “QVQLVESGGGLVQAGGSLRLSCAASGSTFPAYAMGWYRQAPGKERELVAAITRGGSTNYADSEKGRFTISRDNAKNTVYLQMNSLKPEDTAVYYCAADKRYWWRYNYWASRSRGESWGQGTQVTVSS”, the “polyreactivity (PSR sort gate)” value is reported as “high polyreactivity”. In the case of “QVQLVESGGGLVQAGGSLRLSCAASGRTFLVYARGWYRQAPGKDRELVAAISISSGSTYYADSVKGRFTISRDNAKNTVYLQMNSLKPEDTAVYYCAAVYTYVKRASENDYWGQGTQVTVSS”, the “polyreactivity (PSR sort gate)” value is reported as “low polyreactivity”. In the case of “QVQLVESGGGLVQAGGSLRLSCGASGRIIGYNAMGWYRQAPGKERELVAVISTSGTITYYADSVKGRFTISRDNAKNTVYLQMNRLKPEDTAVYYCAARYYQRANGFGYCGQGTQVTVSS”, the “polyreactivity (PSR sort gate)” value is reported as “low polyreactivity”. In the case of “QVQLVESGGGLVQAGGSLRLSCAASGSIFPYYAMGWYRQAPGKERELVAAITSAGSTNYADSVKGRFTISRDNAKNTVYLQMNSLKPEDTAVYYCAKEYYASGRSYRYPQYDYWGQGTQVTVSS”, the “polyreactivity (PSR sort gate)” value is reported as “low polyreactivity”. With “QVQLVESGGGLVQAGGSLRLICAASGRIFRVNAMGWYIQAPGKERELVAGITWSGGSTYYADSVKGRFTISRDNAKNTVYLQMNSLQPEDTAVYSCNAEYSPSYLFYWYEYIYWGQGSQVTVSS” the “polyreactivity (PSR sort gate)” value was “high polyreactivity”. In the case of “QVQLVESGGGLVQAGGSLRLSCAASGITFYYYAMGRYRQAPGKERELVAAIDTDGSTYYADSVKGRFTISRDNAKNTVYLQMNSLKPVDTAVYYCNAVGSRRSIPRVYYWGQGTQVNVSS”, the “polyreactivity (PSR sort gate)” value is reported as “high polyreactivity”.
